Target: T1, GST-UBA5 (UniProt Q9GZZ9 1-404)
T1 construct: also called E1-like enzyme for ufmylation; source: recombinant, E. coli, purified on Glutathione Sepharose 4B (GST kept)
Test: pull-down; GST-UBA5 bound to Glutathione Sepharose 4B, incubated 20 min at 4°C with purified proteins in 20 mM Tris-Cl pH 7.5, 150 mM NaCl, 1 mM EDTA, 1 mM DTT, 0.05% Nonidet P-40; NuPAGE and Coomassie staining
Conditions: both partners purified

T1 sequence (Q9GZZ9 whole entry): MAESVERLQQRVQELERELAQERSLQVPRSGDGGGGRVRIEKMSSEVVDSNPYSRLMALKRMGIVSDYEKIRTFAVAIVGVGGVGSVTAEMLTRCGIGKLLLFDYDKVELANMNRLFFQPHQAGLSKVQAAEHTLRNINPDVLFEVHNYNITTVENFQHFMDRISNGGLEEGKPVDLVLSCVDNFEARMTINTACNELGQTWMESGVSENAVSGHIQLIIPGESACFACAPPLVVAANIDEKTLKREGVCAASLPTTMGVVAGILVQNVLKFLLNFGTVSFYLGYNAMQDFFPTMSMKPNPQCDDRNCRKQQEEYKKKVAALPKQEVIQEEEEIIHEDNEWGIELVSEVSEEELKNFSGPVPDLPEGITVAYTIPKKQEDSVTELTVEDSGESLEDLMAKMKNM

binding result | Binder
binds | UFC1 (wild type, recombinant) (enzyme, human, UniProt Q9Y3C8 1-167, looked up, UFC1, human, the E2-like conjugating enzyme of UFM1; also called E2-like enzyme for ufmylation; source: recombinant, E. coli, purified on Glutathione Sepharose 4B, GST removed by PreScission protease) MADEATRRVVSEIPVLKTNAGPRDRELWVQRLKEEYQSLIRYVENNKNADNDWFRLESNKEGTRWFGKCWYIHDLLKYEFDIEFDIPITYPTTAPEIAVPELDGKTAKMYRGGKICLTDHFKPLWARNVPKFGLAHLMALGLGPWLAVEIPDLIQKGVIQHKEKCNQ
binds | UFC1 T106I (recombinant) (enzyme, human, UniProt Q9Y3C8 1-167, looked up, UFC1, human, with the patients' homozygous variant c.317C>T p.(Thr106Ile); A variant found in patients; also called p.(Thr106Ile); source: recombinant, E. coli, purified on Glutathione Sepharose 4B, GST removed by PreScission protease) MADEATRRVVSEIPVLKTNAGPRDRELWVQRLKEEYQSLIRYVENNKNADNDWFRLESNKEGTRWFGKCWYIHDLLKYEFDIEFDIPITYPTTAPEIAVPELDGKIAKMYRGGKICLTDHFKPLWARNVPKFGLAHLMALGLGPWLAVEIPDLIQKGVIQHKEKCNQ

Reference: article PMC6022668, “Biallelic UFM1 and UFC1 mutations expand the essential role of ufmylation in brain development” (Brain, 2018)
